Test results from patent US5767078A, “Agonist peptide dimers” (priority 1995, dated 1998).
Bridge positions count the residues as written; N and C are the ends. Ends that are not written are not given here.

Experiments:
[1] = biological target: T1, murine EPO receptor (Mus musculus, UniProt P14753); assay: EPO dependent cell proliferation assay, FDC-P1/ER cells; format: cell-based
T1 construct: expressed in transfected cells; host or cells: FDC-P1/ER cells
T1 sequence (P14753 25-507): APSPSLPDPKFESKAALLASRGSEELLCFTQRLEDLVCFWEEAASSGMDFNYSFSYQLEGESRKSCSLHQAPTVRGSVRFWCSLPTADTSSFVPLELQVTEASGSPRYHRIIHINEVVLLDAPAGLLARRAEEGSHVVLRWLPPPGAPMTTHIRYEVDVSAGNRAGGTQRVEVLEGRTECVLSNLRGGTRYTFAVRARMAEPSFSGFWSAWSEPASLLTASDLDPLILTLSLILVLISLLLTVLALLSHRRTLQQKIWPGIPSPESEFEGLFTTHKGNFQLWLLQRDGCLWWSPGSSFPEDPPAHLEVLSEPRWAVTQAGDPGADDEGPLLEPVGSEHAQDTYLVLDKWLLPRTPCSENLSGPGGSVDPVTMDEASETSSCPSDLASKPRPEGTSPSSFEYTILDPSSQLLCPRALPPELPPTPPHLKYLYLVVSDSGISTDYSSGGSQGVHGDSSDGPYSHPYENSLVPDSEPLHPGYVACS
Method: After 24 hours, the cells were counted, resuspended at 800,000 cells/ml and dispensed at 40,000 cells/well. Stock solutions of the peptide dimer (5 mM in PBS) and peptide (10 mM in DMSO) were prepared and dispensed in triplicate to final concentrations of 1×10^-10 M through 1×10^-5 M and adjusted to a final volume of 0.2 ml. […] After a 42 hr incubation at 37° C. (ca. 2 cell doublings) 1 μCi/well of [^3 H] thymidine was added and the incubation continued for 6 hr at which time the cells were harvested and counted to assess [^3 H]thymidine incorporation as a measure of cell proliferation.

[2] = test system: BDF1 mice; assay: Polycythemic exhypoxic mouse bioassay ([59Fe] incorporation into nascent red blood cells); format: in vivo; settings: on a mole equivalent basis
Method: Peptides were assayed for in vivo activity in the polycythemic mouse bioassay adapted from the method described by Cotes and Bangham (1961), Nature 191: 1065-1067. BDF1 mice were allowed to acclimate to ambient conditions for 7-10 days. Body weights were determined for all animals. Low weight animals (<15 grams) were not used. Mice were introduced to hypobaric chambers with a 24 hour conditioning cycle consisting of 0.40% +/-0.02 atm. for 18 hours followed by 6 hours at ambient pressure for a total of 14 days. Following the 14 day period, mice were placed in ambient pressure for 72 hours prior to dosing. […] Peptide sample stock solutions (excluding peptide dimers) were first solubilized in dimethyl sulfoxide (DMSO). Control groups included one group of vehicle alone, and one group of (DMSO) at final concentration of 1%.
Each dose group contained 10 mice. Mice were injected subcutaneously (scruff of neck) with 0.5 ml of the appropriate sample. […]
Mouse body weights were determined twenty four hours following [^59 Fe] administration and the mice were sacrificed forty eight hours following the [^59 Fe] injection. Blood was collected from each animal by cardiac puncture and hematocrits were determined (heparin was used as the anticoagulant). Each blood sample (0.2 ml) was analyzed for [^59 Fe] incorporation using a Packard gamma counter. […]

“peptide (SEQ ID NO: 8)/PEG-dimer: PEG dimer of peptide SEQ ID NO: 8, lot not stated for the in vivo bioassay (GGTYSCHFGPLTWVCKPQGG-NH2; disulfide 6-15 (inferred); also: PEG covalent dimer)” was tested, and the “increase in potency versus parent peptide, murine receptor line” value [1] was 10 fold and the “in vivo activity of dimer relative to monomer” value [2] was “about 10 fold”.
